Holding throughout (experiment): Ki table, method not stated
In assay [1] the target is BCL-2 (UniProt P10415 1-217, limits assumed).
Assay [2] addresses BCL-XL (UniProt Q07817 1-209).
Assay [3] has as its target T1, MCL-1 (UniProt Q07820 172-327, limits assumed).
T1 construct: also called Myeloid cell leukemia 1

Positions of bridges follow the written chain, without caps; N, C: chain ends. Non-standard residues stand in square brackets, D forms with d. Phe(4-CF3) = N[C@@H](Cc1ccc(C(F)(F)F)cc1)C(=O)O; Phe(4-tBu) = CC(C)(C)c1ccc(C[C@H](N)C(=O)O)cc1; 2Nal = N[C@@H](Cc1ccc2ccccc2c1)C(=O)O; Igl = N[C@H](C(=O)O)C1Cc2ccccc2C1; hCha = N[C@@H](CCC1CCCCC1)C(=O)O; hPhe = N[C@@H](CCc1ccccc1)C(=O)O; tBuAla = CC(C)(C)C[C@H](N)C(=O)O; R8 = C=CCCCCCC[C@@](C)(N)C(=O)O; Cha = N[C@@H](CC1CCCCC1)C(=O)O; Cba = N[C@@H](CC1CCC1)C(=O)O; hLeu = CC(C)CC[C@H](N)C(=O)O; S5 = C=CCCC[C@](C)(N)C(=O)O

Chain of BCL-2 (P10415 1-217 limits assumed): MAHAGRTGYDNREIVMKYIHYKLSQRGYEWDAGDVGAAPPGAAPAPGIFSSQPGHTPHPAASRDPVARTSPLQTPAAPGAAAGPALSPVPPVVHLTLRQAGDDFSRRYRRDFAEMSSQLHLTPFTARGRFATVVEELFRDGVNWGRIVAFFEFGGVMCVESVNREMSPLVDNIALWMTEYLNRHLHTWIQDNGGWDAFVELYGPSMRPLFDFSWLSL
Chain of BCL-XL (Q07817 1-209): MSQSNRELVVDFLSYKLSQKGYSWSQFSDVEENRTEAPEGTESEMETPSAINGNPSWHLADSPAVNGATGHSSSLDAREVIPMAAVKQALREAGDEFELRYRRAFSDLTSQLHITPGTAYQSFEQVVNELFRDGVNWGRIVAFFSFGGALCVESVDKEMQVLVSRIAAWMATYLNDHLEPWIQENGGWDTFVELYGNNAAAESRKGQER
T1 sequence (Q07820 172-327 limits assumed): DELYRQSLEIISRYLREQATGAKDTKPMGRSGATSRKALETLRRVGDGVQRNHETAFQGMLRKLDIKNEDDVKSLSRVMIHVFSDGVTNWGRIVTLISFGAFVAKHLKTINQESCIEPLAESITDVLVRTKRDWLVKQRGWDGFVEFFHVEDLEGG

B1: SEQ ID NO: 1680 (peptide)
peptide: Ac-IW[hCha]AQALR[R8]IGDAFN[S5]YYA-NH2
modifications: staple 9-16
SMILES: CC[C@H](C)[C@H](NC(C)=O)C(=O)N[C@@H](Cc1c[nH]c2ccccc12)C(=O)N[C@@H](CCC1CCCCC1)C(=O)N[C@@H](C)C(=O)N[C@@H](CCC(N)=O)C(=O)N[C@@H](C)C(=O)N[C@@H](CC(C)C)C(=O)N[C@@H](CCCNC(=N)N)C(=O)N[C@]1(C)CCCCCCC=CCCC[C@@](C)(C(=O)N[C@@H](Cc2ccc(O)cc2)C(=O)N[C@@H](Cc2ccc(O)cc2)C(=O)N[C@@H](C)C(N)=O)NC(=O)[C@H](CC(N)=O)NC(=O)[C@H](Cc2ccccc2)NC(=O)[C@H](C)NC(=O)[C@H](CC(=O)O)NC(=O)CNC(=O)[C@H]([C@@H](C)CC)NC1=O
notes: also called Ac-IWhChaAQALR$r8IGDAFN$YYA-NH2
As to B1, the Ki in assay [1] was determined as 182 nM; in assay [2] it was 13.1 nM; in assay [3], 22.2 nM.

B2: SEQ ID NO: 1700 (peptide)
peptide: Ac-IWIAQALR[R8][Cha]GDAFN[S5]YYA-NH2
modifications: staple 9-16
SMILES: CC[C@H](C)[C@H](NC(C)=O)C(=O)N[C@@H](Cc1c[nH]c2ccccc12)C(=O)N[C@H](C(=O)N[C@@H](C)C(=O)N[C@@H](CCC(N)=O)C(=O)N[C@@H](C)C(=O)N[C@@H](CC(C)C)C(=O)N[C@@H](CCCNC(=N)N)C(=O)N[C@]1(C)CCCCCCC=CCCC[C@@](C)(C(=O)N[C@@H](Cc2ccc(O)cc2)C(=O)N[C@@H](Cc2ccc(O)cc2)C(=O)N[C@@H](C)C(N)=O)NC(=O)[C@H](CC(N)=O)NC(=O)[C@H](Cc2ccccc2)NC(=O)[C@H](C)NC(=O)[C@H](CC(=O)O)NC(=O)CNC(=O)[C@H](CC2CCCCC2)NC1=O)[C@@H](C)CC
As for B2, the Ki was found to be 109 nM in assay [1], 7.1 nM in assay [2] and 15.9 nM in assay [3].

B3: SEQ ID NO: 1681 (peptide)
peptide: Ac-IW[hPhe]AQALR[R8]IGDAFN[S5]YYA-NH2
modifications: staple 9-16
SMILES: CC[C@H](C)[C@H](NC(C)=O)C(=O)N[C@@H](Cc1c[nH]c2ccccc12)C(=O)N[C@@H](CCc1ccccc1)C(=O)N[C@@H](C)C(=O)N[C@@H](CCC(N)=O)C(=O)N[C@@H](C)C(=O)N[C@@H](CC(C)C)C(=O)N[C@@H](CCCNC(=N)N)C(=O)N[C@]1(C)CCCCCCC=CCCC[C@@](C)(C(=O)N[C@@H](Cc2ccc(O)cc2)C(=O)N[C@@H](Cc2ccc(O)cc2)C(=O)N[C@@H](C)C(N)=O)NC(=O)[C@H](CC(N)=O)NC(=O)[C@H](Cc2ccccc2)NC(=O)[C@H](C)NC(=O)[C@H](CC(=O)O)NC(=O)CNC(=O)[C@H]([C@@H](C)CC)NC1=O
notes: also called Ac-IWhFAQALR$r8IGDAFN$YYA-NH2
Consider B3, for which the inhibitory constant (Ki) was 221 nM in assay [1], 69.7 nM in assay [2] and 53.1 nM in assay [3].

B4: SEQ ID NO: 1699 (peptide)
peptide: Ac-IWIAQALR[R8][hLeu]GDAFN[S5]YYA-NH2
modifications: staple 9-16
SMILES: CC[C@H](C)[C@H](NC(C)=O)C(=O)N[C@@H](Cc1c[nH]c2ccccc12)C(=O)N[C@H](C(=O)N[C@@H](C)C(=O)N[C@@H](CCC(N)=O)C(=O)N[C@@H](C)C(=O)N[C@@H](CC(C)C)C(=O)N[C@@H](CCCNC(=N)N)C(=O)N[C@]1(C)CCCCCCC=CCCC[C@@](C)(C(=O)N[C@@H](Cc2ccc(O)cc2)C(=O)N[C@@H](Cc2ccc(O)cc2)C(=O)N[C@@H](C)C(N)=O)NC(=O)[C@H](CC(N)=O)NC(=O)[C@H](Cc2ccccc2)NC(=O)[C@H](C)NC(=O)[C@H](CC(=O)O)NC(=O)CNC(=O)[C@H](CCC(C)C)NC1=O)[C@@H](C)CC
As for B4, the Ki worked out at 12.7 nM in assay [1], 6 nM in assay [2] and 13 nM in assay [3].

B5: SEQ ID NO: 1683 (peptide)
peptide: Ac-IW[Phe(4-CF3)]AQALR[R8]IGDAFN[S5]YYA-NH2
modifications: staple 9-16
SMILES: CC[C@H](C)[C@H](NC(C)=O)C(=O)N[C@@H](Cc1c[nH]c2ccccc12)C(=O)N[C@@H](Cc1ccc(C(F)(F)F)cc1)C(=O)N[C@@H](C)C(=O)N[C@@H](CCC(N)=O)C(=O)N[C@@H](C)C(=O)N[C@@H](CC(C)C)C(=O)N[C@@H](CCCNC(=N)N)C(=O)N[C@]1(C)CCCCCCC=CCCC[C@@](C)(C(=O)N[C@@H](Cc2ccc(O)cc2)C(=O)N[C@@H](Cc2ccc(O)cc2)C(=O)N[C@@H](C)C(N)=O)NC(=O)[C@H](CC(N)=O)NC(=O)[C@H](Cc2ccccc2)NC(=O)[C@H](C)NC(=O)[C@H](CC(=O)O)NC(=O)CNC(=O)[C@H]([C@@H](C)CC)NC1=O
notes: also called Ac-IWF4CF3AQALR$r8IGDAFN$YYA-NH2
Consider B5, for which the Ki in assay [1] came out at 237 nM; in assay [2], 9.1 nM; in assay [3], 76.7 nM.

B6: SEQ ID NO: 1695 (peptide)
peptide: Ac-IWIAQA[Phe(4-tBu)]R[R8]IGDAFN[S5]YYA-NH2
modifications: staple 9-16
SMILES: CC[C@H](C)[C@H](NC(C)=O)C(=O)N[C@@H](Cc1c[nH]c2ccccc12)C(=O)N[C@H](C(=O)N[C@@H](C)C(=O)N[C@@H](CCC(N)=O)C(=O)N[C@@H](C)C(=O)N[C@@H](Cc1ccc(C(C)(C)C)cc1)C(=O)N[C@@H](CCCNC(=N)N)C(=O)N[C@]1(C)CCCCCCC=CCCC[C@@](C)(C(=O)N[C@@H](Cc2ccc(O)cc2)C(=O)N[C@@H](Cc2ccc(O)cc2)C(=O)N[C@@H](C)C(N)=O)NC(=O)[C@H](CC(N)=O)NC(=O)[C@H](Cc2ccccc2)NC(=O)[C@H](C)NC(=O)[C@H](CC(=O)O)NC(=O)CNC(=O)[C@H]([C@@H](C)CC)NC1=O)[C@@H](C)CC
notes: also called Ac-IWIAQAF4tBuR$r8IGDAFN$YYA-NH2
Turning to B6, the Ki in assay [1] stood at 288 nM; in assay [2], 12.7 nM; in assay [3], 169 nM.

B7: SEQ ID NO: 1685 (peptide)
peptide: Ac-IW[2Nal]AQALR[R8]IGDAFN[S5]YYA-NH2
modifications: staple 9-16
SMILES: CC[C@H](C)[C@H](NC(C)=O)C(=O)N[C@@H](Cc1c[nH]c2ccccc12)C(=O)N[C@@H](Cc1ccc2ccccc2c1)C(=O)N[C@@H](C)C(=O)N[C@@H](CCC(N)=O)C(=O)N[C@@H](C)C(=O)N[C@@H](CC(C)C)C(=O)N[C@@H](CCCNC(=N)N)C(=O)N[C@]1(C)CCCCCCC=CCCC[C@@](C)(C(=O)N[C@@H](Cc2ccc(O)cc2)C(=O)N[C@@H](Cc2ccc(O)cc2)C(=O)N[C@@H](C)C(N)=O)NC(=O)[C@H](CC(N)=O)NC(=O)[C@H](Cc2ccccc2)NC(=O)[C@H](C)NC(=O)[C@H](CC(=O)O)NC(=O)CNC(=O)[C@H]([C@@H](C)CC)NC1=O
notes: also called Ac-IW2NalAQALR$r8IGDAFN$YYA-NH2
Consider B7, for which the Ki in assay [1] came to 265 nM; in assay [2] it was 151 nM; in assay [3] it was 163 nM.

B8: SEQ ID NO: 1696 (peptide)
peptide: Ac-IWIAQA[2Nal]R[R8]IGDAFN[S5]YYA-NH2
modifications: staple 9-16
SMILES: CC[C@H](C)[C@H](NC(C)=O)C(=O)N[C@@H](Cc1c[nH]c2ccccc12)C(=O)N[C@H](C(=O)N[C@@H](C)C(=O)N[C@@H](CCC(N)=O)C(=O)N[C@@H](C)C(=O)N[C@@H](Cc1ccc2ccccc2c1)C(=O)N[C@@H](CCCNC(=N)N)C(=O)N[C@]1(C)CCCCCCC=CCCC[C@@](C)(C(=O)N[C@@H](Cc2ccc(O)cc2)C(=O)N[C@@H](Cc2ccc(O)cc2)C(=O)N[C@@H](C)C(N)=O)NC(=O)[C@H](CC(N)=O)NC(=O)[C@H](Cc2ccccc2)NC(=O)[C@H](C)NC(=O)[C@H](CC(=O)O)NC(=O)CNC(=O)[C@H]([C@@H](C)CC)NC1=O)[C@@H](C)CC
notes: also called Ac-IWIAQA2NalR$r8IGDAFN$YYA-NH2
On to B8, for which the Ki in assay [1] turned out to be 234 nM; in assay [2], 17.3 nM; in assay [3], 120 nM.

B9: SEQ ID NO: 1701 (peptide)
peptide: Ac-IWIAQALR[R8][tBuAla]GDAFN[S5]YYA-NH2
modifications: staple 9-16
SMILES: CC[C@H](C)[C@H](NC(C)=O)C(=O)N[C@@H](Cc1c[nH]c2ccccc12)C(=O)N[C@H](C(=O)N[C@@H](C)C(=O)N[C@@H](CCC(N)=O)C(=O)N[C@@H](C)C(=O)N[C@@H](CC(C)C)C(=O)N[C@@H](CCCNC(=N)N)C(=O)N[C@]1(C)CCCCCCC=CCCC[C@@](C)(C(=O)N[C@@H](Cc2ccc(O)cc2)C(=O)N[C@@H](Cc2ccc(O)cc2)C(=O)N[C@@H](C)C(N)=O)NC(=O)[C@H](CC(N)=O)NC(=O)[C@H](Cc2ccccc2)NC(=O)[C@H](C)NC(=O)[C@H](CC(=O)O)NC(=O)CNC(=O)[C@H](CC(C)(C)C)NC1=O)[C@@H](C)CC
In the case of B9, the Ki in assay [1] was determined as 227 nM; in assay [2], 35.4 nM; in assay [3], 13.7 nM.

B10: SEQ ID NO: 1682 (peptide)
peptide: Ac-IW[Igl]AQALR[R8]IGDAFN[S5]YYA-NH2
modifications: staple 9-16
SMILES: CC[C@H](C)[C@H](NC(C)=O)C(=O)N[C@@H](Cc1c[nH]c2ccccc12)C(=O)N[C@H](C(=O)N[C@@H](C)C(=O)N[C@@H](CCC(N)=O)C(=O)N[C@@H](C)C(=O)N[C@@H](CC(C)C)C(=O)N[C@@H](CCCNC(=N)N)C(=O)N[C@]1(C)CCCCCCC=CCCC[C@@](C)(C(=O)N[C@@H](Cc2ccc(O)cc2)C(=O)N[C@@H](Cc2ccc(O)cc2)C(=O)N[C@@H](C)C(N)=O)NC(=O)[C@H](CC(N)=O)NC(=O)[C@H](Cc2ccccc2)NC(=O)[C@H](C)NC(=O)[C@H](CC(=O)O)NC(=O)CNC(=O)[C@H]([C@@H](C)CC)NC1=O)C1Cc2ccccc2C1
notes: also called Ac-IWIglAQALR$r8IGDAFN$YYA-NH2
As for B10, the Ki in assay [1] is 246 nM; in assay [2], 146 nM; in assay [3], 12.8 nM.

B11: SEQ ID NO: 1698 (peptide)
peptide: Ac-IWIAQALR[R8][Cba]GDAFN[S5]YYA-NH2
modifications: staple 9-16
SMILES: CC[C@H](C)[C@H](NC(C)=O)C(=O)N[C@@H](Cc1c[nH]c2ccccc12)C(=O)N[C@H](C(=O)N[C@@H](C)C(=O)N[C@@H](CCC(N)=O)C(=O)N[C@@H](C)C(=O)N[C@@H](CC(C)C)C(=O)N[C@@H](CCCNC(=N)N)C(=O)N[C@]1(C)CCCCCCC=CCCC[C@@](C)(C(=O)N[C@@H](Cc2ccc(O)cc2)C(=O)N[C@@H](Cc2ccc(O)cc2)C(=O)N[C@@H](C)C(N)=O)NC(=O)[C@H](CC(N)=O)NC(=O)[C@H](Cc2ccccc2)NC(=O)[C@H](C)NC(=O)[C@H](CC(=O)O)NC(=O)CNC(=O)[C@H](CC2CCC2)NC1=O)[C@@H](C)CC
Regarding B11, the Ki in assay [1] is 89 nM; in assay [2], 27.5 nM; in assay [3], 26.6 nM.

In general, Ki refers to the equilibrium dissociation constant of an inhibitor or competing ligand from its target.

These data come from US20180273587A1 (AILERON THERAPEUTICS, published 2018).
